Measurements as given in patent US12534748B2, “Engineered beta-subunit of tryptophan synthase for production of non-canonical amino acids” (California Institute of Technology, priority 2015, dated 2026).
Numbering of substitutions follows the chain as printed. Names may count otherwise.

T1: PfTrpA (Pyrococcus furiosus, UniProt Q8U094)
T1 construct: made in house; host or cells: E. coli BL21 E. cloni EXPRESS
T1 sequence (Q8U094 whole entry, looked up): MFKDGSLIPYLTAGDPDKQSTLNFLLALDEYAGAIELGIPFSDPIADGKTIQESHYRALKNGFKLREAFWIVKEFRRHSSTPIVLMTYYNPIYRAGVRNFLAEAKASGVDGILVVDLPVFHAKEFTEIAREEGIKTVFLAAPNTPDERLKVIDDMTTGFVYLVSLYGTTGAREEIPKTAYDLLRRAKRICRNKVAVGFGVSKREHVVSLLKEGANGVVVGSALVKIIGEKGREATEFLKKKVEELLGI

T2: PfTrpA (Pyrococcus furiosus, UniProt Q8U094)
T2 construct: made in house; host or cells: E. coli BL21 E. cloni EXPRESS
T2 sequence (Q8U094 1-248): T1 sequence (Q8U094 whole entry, looked up)
T2 sequence (Q8U093 1-388 partner): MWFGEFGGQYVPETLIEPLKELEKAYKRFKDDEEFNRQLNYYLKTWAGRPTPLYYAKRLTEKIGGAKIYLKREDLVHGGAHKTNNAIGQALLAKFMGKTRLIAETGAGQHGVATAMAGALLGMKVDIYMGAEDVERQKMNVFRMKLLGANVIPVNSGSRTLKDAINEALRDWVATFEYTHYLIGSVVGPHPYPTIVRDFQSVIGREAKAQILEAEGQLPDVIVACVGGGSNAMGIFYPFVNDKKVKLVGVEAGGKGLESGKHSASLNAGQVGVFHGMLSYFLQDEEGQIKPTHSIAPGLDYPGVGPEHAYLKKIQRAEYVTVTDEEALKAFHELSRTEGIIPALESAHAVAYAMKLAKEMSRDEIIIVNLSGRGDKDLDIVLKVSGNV

B1: PfTrpB^0B2: PfTrpB with mutations P12L, E17G, I68V, F274S, T292S, T321A (protein)
chain: MWFGEFGGQYVLETLIGPLKELEKAYKRFKDDEEFNRQLNYYLKTWAGRPTPLYYAKRLTEKIGGAKVYLKREDLVHGGAHKTNNAIGQALLAKFMGKTRLIAETGAGQHGVATAMAGALLGMKVDIYMGAEDVERQKMNVFRMKLLGANVIPVNSGSRTLKDAINEALRDWVATFEYTHYLIGSVVGPHPYPTIVRDFQSVIGREAKAQILEAEGQLPDVIVACVGGGSNAMGIFYPFVNDKKVKLVGVEAGGKGLESGKHSASLNAGQVGVSHGMLSYFLQDEEGQIKPSHSIAPGLDYPGVGPEHAYLKKIQRAEYVAVTDEEALKAFHELSRTEGIIPALESAHAVAYAMKLAKEMSRDEIIIVNLSGRGDKDLDIVLKVSGNVLEHHHHHH
modifications: left off: small tags and cut ends
notes: PfTrpB with mutations P12L, E17G, I68V, F274S, T292S, T321A
B2: PfTrpB^4D11: PfTrpB with mutations E17G, I68V, F274S, T292S, T321A (protein)
chain: B1 chain with L12P
modifications: left off: small tags and cut ends
notes: PfTrpB with mutations E17G, I68V, F274S, T292S, T321A
B3: PfTrpB: wild-type β-subunit of tryptophan synthase from Pyrococcus furiosus, SEQ ID NO:2 (protein, listed as Pyrococcus furiosus)
chain: B1 chain with L12P, G17E, V68I, S274F, S292T, A321T
B4: PfTrpB^2G9: PfTrpB with mutation T292S (protein)
chain: B1 chain with L12P, G17E, V68I, S274F, A321T
modifications: left off: small tags and cut ends
notes: PfTrpB with mutation T292S
B5: TmTrpB^WT: wild-type TrpB from Thermotoga maritima, SEQ ID NO:6 (protein, listed as Thermotoga maritima)
chain: MKGYFGPYGGQYVPEILMPALEELEAAYEEIMKDESFWKEFNDLLRDYAGRPTPLYFARRLSEKYGARIYLKREDLLHTGAHKINNAIGQVLLAKKMGKTRIIAETGAGQHGVATATAAALFGMECVIYMGEEDTIRQKPNVERMKLLGAKVVPVKSGSRTLKDAINEALRDWITNLQTTYYVIGSVVGPHPYPIIVRNFQKVIGEETKKQILEKEGRLPDYIVACVGGGSNAAGIFYPFIDSGVKLIGVEAGGEGLETGKHAASLLKGKIGYLHGSKTFVLQDDWGQVQVTHSVSAGLDYSGVGPEHAYWRETGKVLYDAVTDEEALDAFIELSRLEGIIPALESSHALAYLKKINIKGKVVVVNLSGRGDKDLESVLNHPYVRERIRLEHHHHHH

What was measured:
PfTrpA [1] = assay type: biochemical, Pyrococcus furiosus
PfTrpA [2] = target: T1, PfTrpA; assay type: biochemical; settings: percent of its own activity
[3] = Total turnovers of β-MeTrp formation from L-threonine and indole; assay type: biochemical; settings: for Turnovers: 1 μM purified enzyme, 20 mM each L-threonine and indole, 24 h at 75° C.; for turnovers (TTN) of β-MeTrp production: purified enzyme, 24 hours
Description: Total Turnover Number (TTN) determination. Measurements were made using HPLC and LC-MS instruments. The amount of Trp formed was measured at 280 nm using a standard curve with trichlorobenzene as internal standard. […] This same technique was used to determine the TTN of the PfTrpB^2B9 reaction with different nucleophiles. […] […] Before addition of enzyme, all reagents were transferred into a Coy anaerobic chamber with <1 ppm O2 to rapidly exchange the atmosphere in the headspace of the vials to 95/5% N2/H2, which limits competing non-catalytic oxidation of indoles. Enzyme was added in the anaerobic environment with varied catalyst loading to ensure a robust product signal in subsequent analysis. Reaction vessels were capped before being removed from the anaerobic chamber and incubated in a 75° C. water bath for 24 hours. Reactions were quenched the next day by addition of 1 volume (150 μL) of 100% ACN, mixing, and allowing to rest at room temperature for 10 min. Quenched solutions were then diluted 5-fold with 40% ACN in water and analyzed via LC-MS.
To identify the best parent enzyme for optimization, we first measured production of β-MeTrp using purified enzymes from each generation in the evolution if PfTrpB^0B2.

[4] = Kinetics of tryptophan formation monitored at 290 nm (continuous assay for Trp production); assay type: biochemical
Description: Kinetics and UV-Vis Spectroscopy. Data were collected between 550 and 250 nm on a UV1800 Shimadzu spectrophotometer (Shimadzu) using 0.25-20 μM of enzyme in 200 mM potassium phosphate (pH 8.0) in a quartz cuvette. Samples were incubated at 75° C. for >3 min to ensure a stable temperature was reached. PfTrpB activity (kcat) was measured by monitoring tryptophan formation at 290 nm using Δe290=1.89 mM^−1·cm^−1.
Purified protein concentrations were determined via the Bradford assay (Bio-Rad). The concentration of PfTrpB^2B9 in heat treated lysates was determined by specific activity. Tryptophan formation was monitored at 75° C. over 1 min at 290 nm using Δε290=1.89 mM^−1 cm^−1·^2 The assay buffer contained 200 mM potassium phosphate pH 8, and 5 μM PLP. Using purified PfTrpB^2B9, we recorded an activity of 0.9 s^−1 with 400 μM Ind and 20 mM Ser. Using this parameter, 375 mg L^−1 of PfTrpB^2B9 active catalyst were prepared as a heat-treated lysate.

[5] = Substrate selectivity: relative rate of NCAA production with L-serine and indole analogs (UHPLC-MS); assay type: biochemical
Description: engineered TrpB enzymes. (A) Indole analogs that have been reported to react with StTrpS were tested for reactivity with the PfTrpB, PfTrpS, and PfTrpB^0B2 enzymes. The nucleophilic atom is indicated with a gray circle. (B) Relative activities of enzyme complex PfTrpS (black) and PfTrpB^0B2 (gray) compared with PfTrpB. Reactions performed in duplicate with 20 mM of each substrate and varying enzyme concentrations to ensure incomplete conversion after 1 h. Products were later confirmed in scaled-up reactions using PfTrpB^0B2.
Substrate Selectivity. The relative rate of NCAA production was measured using 20 mM L-serine and 20 mM indole analog (FIG. 4A) in 200 mM potassium phosphate (pH 8.0) with 5% (vol/vol) DMSO. Reactions were incubated at 75° C. for 1 h, quenched, and the relative rate of production formation was measured by comparing the ratio of the product peaks measured via ultra HPLC-MS (UHPLC-MS) Agilent 1290 with 6140 MS detector at 280 nm and then normalizing for the enzyme concentration.

[6] = Thermostability T50 (temperature of half-maximal activity after incubation for 1 h); assay type: physicochemical; settings: for T50: temperature of half-maximal activity after incubation for 1 h
[7] = Rescreen of library hits for β-MeTrp formation (heat-treated lysate, HPLC); assay type: biochemical; settings: random mutagenesis library, parent PfTrpB^4D11, 60 min reaction at 75° C.
Description: High-throughput screening. For high-throughput expression, BL21 E. cloni Express cells carrying PfTrpB^4D11 and variant plasmids were grown in 96-well deep well plates in 300 μL TBamp at 37° C. and 80% humidity with shaking at 250 rpm overnight. TBamp expression cultures (630 μL) were inoculated with 20 μL of the overnight cultures and continued to grow at 37° C. and 80% humidity with shaking at 250 rpm for 3 h. Expression was induced with the addition of ITPG to a final concentration of 1 mM to pre-chilled (20 min on ice-water bath) cultures. The expression continued for another 20 h at 20° C. with shaking at 250 rpm. Cells were then centrifuged at 4000 g for 10 min and frozen at −20° C. over night. […] The reactions were then arrested by incubation in an ice-water bath, and the amount of β-MeTrp formed was recorded at 290 nm with a plate reader (Tecan Infinite M200).
Cultures of each hit containing missense mutations were grown in triplicate on 5 mL scale and expression and lysis proceeded in the same manner as described in the Cloning, Expression and Purification section above. Reactions using 10 μM protein as heat-treated lysate (determined by Bradford assay) and 20 mM each substrate were run for 1 h at 75° C. and quenched by dilution to 50% ACN.

PfTrpA [8] = target: T2, PfTrpA; assay type: biochemical; settings: Table 1, values for PfTrpB reported here
[9] = Table 1, published values; cited from earlier work

Molecule	kcat change with TrpA (PfTrpA [1])	Turnovers [3]	T50 [6]	turnovers (TTN) of β-MeTrp production [3]	also measured
B1	0.04	180	87 °C	–	activity when PfTrpA was added (PfTrpA [2]): 4%; kcat higher than PfTrpS [4]: threefold; activity relative to PfTrpB on the substrate panel ([5]; all nucleophiles tested): substantial increase in activity; rate relative to PfTrpS ([5]; indazole (5)): three; rate relative to PfTrpS ([5]; indoline (6)): approximately six
B2	0.3	660	84 °C	~420	Fold Improvement (increase in β-MeTrp formation relative to parent) [7]: 1.0 (parent)
B3	3.2	66	95 °C	66	kcat change with TrpA (PfTrpA [8]): 3.2; Thermal stability indicators: T50 ([6]; Table 1): 94.7 ± 1.2
B4	0.34	420	95 °C	–	enhancement of β-MeTrp activity relative to wild-type PfTrpB [3]: approximately 6 fold
B5	–	–	–	–	kcat change with TrpA [9]: 2.4
